In US20120027684A1 (IMMATICS BIOTECHNOLOGIES, published 2012):

Biological target: HLA A*0201 (human)
Assay: ELISA-based peptide-HLA binding method (Sylvester-Hvid et al., 2002)

Binder: LLGATCMFV (also called cyclin peptide CCN-001) [CCN-001]
- binding result: binds
